Experimental data reported in IntAct's records for PubMed 18628306.

B1: Mitochondrial chaperone BCS1 (Homo sapiens), Q9Y276 (parent)
chain: MPLSDFILALKDNPYFGAGFGLVGVGTALALARKGVQLGLVAFRRHYMITLEVPARDRSYAWLLSWLTRHSTRTQHLSVETSYLQHESGRISTKFEFVPSPGNHFIWYRGKWIRVERSREMQMIDLQTGTPWESVTFTALGTDRKVFFNILEEARELALQQEEGKTVMYTAVGSEWRPFGYPRRRRPLNSVVLQQGLADRIVRDVQEFIDNPKWYTDRGIPYRRGYLLYGPPGCGKSSFITALAGELEHSICLLSLTDSSLSDDRLNHLLSVAPQQSLVLLEDVDAAFLSRDLAVENPVKYQGLGRLTFSGLLNALDGVASTEARIVFMTTNHVDRLDPALIRPGRVDLKEYVGYCSHWQLTQMFQRFYPGQAPSLAENFAEHVLRATNQISPAQVQGYFMLYKNDPVGAIHNAESLRR

Variants of: B1
Conditions: with letm1_human LETM1, O95202
letm1_human LETM1, O95202, sequence (O95202 whole entry): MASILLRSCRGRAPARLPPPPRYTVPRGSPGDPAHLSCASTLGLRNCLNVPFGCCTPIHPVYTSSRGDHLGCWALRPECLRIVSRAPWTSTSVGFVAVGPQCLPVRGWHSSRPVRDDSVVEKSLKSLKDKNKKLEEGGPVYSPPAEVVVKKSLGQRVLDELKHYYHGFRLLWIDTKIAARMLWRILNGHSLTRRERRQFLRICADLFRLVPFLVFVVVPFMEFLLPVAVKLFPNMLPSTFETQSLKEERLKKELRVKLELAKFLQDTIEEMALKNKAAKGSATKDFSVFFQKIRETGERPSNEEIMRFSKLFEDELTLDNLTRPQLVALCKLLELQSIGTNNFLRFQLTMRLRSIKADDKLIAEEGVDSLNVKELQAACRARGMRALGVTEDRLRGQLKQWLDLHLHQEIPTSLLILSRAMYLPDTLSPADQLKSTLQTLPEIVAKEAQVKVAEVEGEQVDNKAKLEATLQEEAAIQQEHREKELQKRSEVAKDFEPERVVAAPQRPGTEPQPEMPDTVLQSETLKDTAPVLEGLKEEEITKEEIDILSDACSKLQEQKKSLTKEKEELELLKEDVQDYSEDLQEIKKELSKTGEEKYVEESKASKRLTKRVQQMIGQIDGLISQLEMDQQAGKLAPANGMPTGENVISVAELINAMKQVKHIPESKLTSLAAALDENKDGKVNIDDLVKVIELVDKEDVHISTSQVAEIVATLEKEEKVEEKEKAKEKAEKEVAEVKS

Row | effect of a mutation on the interaction | Variant
1 | disrupting interaction | R155P
